According to patent US20190275125A1 (H LUNDBECK A S, published 2019):

Key:
Experiment in all cases: MSD inhibition assay, abeta 1-28 coated plates
Met-var24 = biological target: Met-var24
[1] = biological target: T1, abeta 1-12 trimer construct (UniProt P05067 672-683; P05067 672-683; P05067 672-683)
T1 construct: range 1-12
T1 sequence (peptide): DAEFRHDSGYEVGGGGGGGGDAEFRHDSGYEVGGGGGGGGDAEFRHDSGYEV

Var24 = biological target: Var24

Measured: binding result

B1: Biosimilar (BS) bapineuzumab (antibody, V domains shown)
VH: EVQLVESGGGLVQPGGSLRLSCAGSGFTFSNYGMSWVRQAPGKGLEWVASIRSGGGRTYYSDNVKGRFTISRENAKNSLYLQMNSLRAEDTAVYYCVRYDHYSGSSDYWGQGTLVTVSS
VL: DVVMTQSPLSLPVTLGQPASISCKSSQSLLDSDGKTYLNWLQQRPGQSPRRLIYLVSKLDSGVPDRFSGSGSGTDFTLKISRVEAEDVGVYYCWQGTHFPRTFGGGTKVEIKR
binds: all assays above
